The values that follow come from PMC6341043.

In assay [1] the target is Jun (LexA fusion, positive control of the bacterial two-hybrid system). As to the kind of experiment: two-hybrid; bacterial two-hybrid (LexA-WT and LexA-MUT fusions) in E. coli SU202; heterodimerization represses lacZ; quantitative beta-galactosidase activity against the strain with empty vectors pSR658 and pSR659, n = 3.
In assay [2] the target is TraM (TraR antiactivator) of plasmid pAoF64/95 (Agrobacterium spp. (plasmid pAoF64/95)). The assay is described as above.

“And” between values parts separate entries of the source, which are not always exact repeats. Identical values can stand only once.

“Fos (LexA fusion, positive control of the bacterial two-hybrid system) (natural protein)” registered a fold lower beta-galactosidase activity than the empty-vector control strain in assay [1] of 52 fold.
With “TmsPs (short form of TmsP, tra M sequestering protein, of plasmid pAoF64/95) (natural protein)”, the fold lower beta-galactosidase activity than the empty-vector control strain in assay [2] is 2 fold and 3 fold.
